{"source": "patent US20030180282A1", "about": "“Method of treatment of thrombotic events” (priority 2002, published 2003)", "tested_on": "platelets", "assay": "flow cytometry of platelet surface receptor expression in AMI patients during first 24 hours after r-PA or t-PA", "type": "in vivo, human", "excerpt": "Twenty-three consecutive patients admitted to the emergency rooms of St. Agnes Hospital, or the Union Memorial Hospital between July and December of 1996 with a diagnosis of acute myocardial infarction were included. All patients were enrolled in the randomized trial of Reteplase (r-PA) versus accelerated Alteplase (t-PA) for the treatment of acute myocardial infarction, (GUSTO-III trial).\nBlood samples for PA, and for flow cytometric studies were taken at prespecified intervals as follows: in the emergency room immediately before administration of the thrombolytic therapy and then in the coronary care unit at 3 hours, 6 hours, 12 hours, and finally at 24 hours after initiation of the r-PA or t-PA therapy.\nThirteen patients randomized to r-PA received a double bolus, 10+10 MU thirty minutes apart. Ten patients received t-PA in the accelerated regimen as a 15 mg bolus, then 0.75 mg/kg over 30 minutes, and then 0.50 mg/kg over 60 minutes. During the baseline sampling every patient had received 325 mg of aspirin and each day thereafter, at least 5,000 U of intravenous heparin. Following the administration of thrombolytic therapy all patients received a continuous infusion of heparin for the first 24 hours following thrombolysis as recommended in the GUSTO-III protocol.\nThe schedule of blood drawing, sample preparation and processing were critical issues of the study design, and were monitored by an independent observer. The actual timing of blood collection for the baseline sample was 9.5±1.4 minutes before the start of thrombolytic therapy; 174.6±21.8 minutes for the 3 hours sample; 371.1±24.2 minutes for 6 hours sample; 709.4±17.8 minutes for 12 hours sample; and 1402.9±18.8 minutes for 24 hours sample. Samples were processed within one hour after blood drawing. […] The reasons for early termination were as follows: patient transfer for emergency coronary angioplasty (3 patients), and inability to obtain blood sample (1 patient). Twenty three baseline samples; twenty two samples collected at 3 hours; twenty samples collected at 6 hours; twenty samples collected at 12 hours; and nineteen samples collected at 24 hours were included in the study analysis.\nFor flow cytometric analysis, venous blood (8 ml) was collected in a plastic tube containing 2 ml of acid-citrate-dextrose (ACD) (7.3 g citric acid, 22.0 g sodium citrate ×2H2O and 24.5 glucose in 1000 ml distilled water) and mixed well. The blood-ACD mixture was centrifuged at 1000 r.p.m. for 10 minutes at room temperature. The upper ⅔ of the platelet-rich plasma (PRP) was then collected and adjusted to pH=6.5 by adding ACD. The PRP was then centrifuged at 3000 r.p.m. for 10 minutes. The supernatant was removed and the platelet pellet was gently resuspended in 4 cc of the washing buffer (10 mM Tris/HCl, 0.15 M NaCl, 20 mM EDTA, pH=7.4). Platelets were washed 4 times in the washing buffer, and an additional four times in TBS (10 mM Tris, 0.15 M NaCl, pH=7.4). All cells were then divided into ten plastic capped tubes. Nine portions of washed platelets were incubated with 5 μl fluorescein isothiocyanate (FITC)-conjugated antibodies in the dark at +4° C. for 30 minutes, and one part remained unstained and served as a negative control. Surface antigen expression was measured with monoclonal murine anti-human antibodies: CD9 (p24); CD41a (IIb/IIIa, (IIb(3); CD42b (Ib); CD61(IIIa) (DAKO Corporation, Carpinteria Calif.); CD49b (VLA-2, or (2(1); CD62p (P selectin); CD31 (PECAM-1); CD 41b (IIb); and CD51/CD61 (vitronectin receptor, (v(3) (PharMingen, San Diego Calif.). After incubation, the cells were washed three times with TBS and resuspended in 0.25 ml of 1% paraformaldehyde. Samples were stored in the refrigerator at +4° C., and analyzed on a Becton Dickinson FACScan™ flow cytometry with laser output of 15 mw, excitation at 488 mm, and emission detection at 530±30 nm. […]"}
{"molecule": "t-PA: recombinant tissue plasminogen activator, thrombolytic agent (Genentech) (protein, UniProt P00750 36-562, looked up) Tissue-type plasminogen …: SYQVICRDEKTQMIYQQHQSWLRPVLRSNRVEYCWCNSGRAQCHSVPVKSCSEPRCFNGGTCQQALYFSDFVCQCPEGFAGKCCEIDTRATCYEDQGISYRGTWSTAESGAECTNWNSSALAQKPYSGRRPDAIRLGLGNHNYCRNPDRDSKPWCYVFKAGKYSSEFCSTPACSEGNSDCYFGNGSAYRGTHSLTESGASCLPWNSMILIGKVYTAQNPSAQALGLGKHNYCRNPDGDAKPWCHVLKNRRLTWEYCDVPSCSTCGLRQYSQPQFRIKGGLFADIASHPWQAAIFAKHRRSPGERFLCGGILISSCWILSAAHCFQERFPPHHLTVILGRTYRVVPGEEEQKFEVEKYIVHKEFDDDTYDNDIALLQLKSDSSRCAQESSVVRTVCLPPADLQLPDWTECELSGYGKHEALSPFYSERLKEAHVRLYPSSRCTSQHLLNRTVTDNMLCAGDTRSGGPQANLHDACQGDSGGPLVCLNDGRMTLVGIISWGLGCGQKDVPGVYTKVTNYLDWIRDNMRP", "values": [{"measurement": "glycoprotein IIIa expression compared to baseline", "setting": "12 hours", "result": "not after t-PA therapy"}, {"measurement": "glycoprotein Ib expression compared to baseline", "setting": "12 hours", "result": "significant inhibition"}, {"measurement": "platelet vitronectin receptor expression", "setting": "12 hours after thrombolysis", "result": "significant increase"}, {"measurement": "glycoprotein IIIa expression compared to baseline", "setting": "24 hours", "result": "not after t-PA therapy"}, {"measurement": "glycoprotein IIb/IIIa expression compared to baseline", "setting": "24 hours", "result": "elevated"}, {"measurement": "p24 (CD 9) expression compared to baseline", "setting": "24 hours", "result": "higher"}, {"measurement": "platelet vitronectin receptor expression", "setting": "24 hours after thrombolysis", "result": "trended toward the baseline"}, {"measurement": "P-selectin expression, early change", "setting": "early", "result": "early significant decrease"}, {"measurement": "p24 (CD 9) expression compared to baseline", "setting": "early time points", "result": "no early receptor inhibition"}, {"measurement": "P-selectin expression, later change", "setting": "following the early decrease", "result": "significant increase"}]}
